Laboratory results from patent publication US20240269276A1 (HARBOUR BIOMED SHANGHAI, published 2024).
Where a chain is given by its changes, count along the chain named. In names and notes the source's numbering stands. Values belong to the binder of their own block, whether it stands above or below them.

How the values were obtained:
[1] = target: T1, human CD73 on CHO-K1 cells overexpressing human CD73 (human, UniProt P21589 27-549); assay: flow cytometry on CHO-K1 cells overexpressing human CD73 (CHO-K1-hCD73)
T1 construct: whole, on cells; also called CHO-K1-hCD73
T1 sequence (looked up): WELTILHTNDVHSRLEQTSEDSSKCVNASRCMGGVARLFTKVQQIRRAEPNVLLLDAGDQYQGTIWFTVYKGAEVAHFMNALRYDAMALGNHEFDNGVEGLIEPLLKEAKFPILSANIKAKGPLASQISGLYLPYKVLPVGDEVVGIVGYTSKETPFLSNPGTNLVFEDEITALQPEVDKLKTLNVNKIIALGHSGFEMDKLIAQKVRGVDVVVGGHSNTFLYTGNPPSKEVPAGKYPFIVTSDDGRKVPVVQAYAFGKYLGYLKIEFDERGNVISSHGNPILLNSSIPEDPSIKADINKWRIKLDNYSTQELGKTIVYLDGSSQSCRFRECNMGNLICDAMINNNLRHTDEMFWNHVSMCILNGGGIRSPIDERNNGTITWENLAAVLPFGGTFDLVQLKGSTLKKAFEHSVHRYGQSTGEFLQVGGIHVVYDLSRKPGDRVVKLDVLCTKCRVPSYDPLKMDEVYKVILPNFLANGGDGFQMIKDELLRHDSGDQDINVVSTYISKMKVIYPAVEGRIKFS
Method: (§1) In order to investigate the binding activity of the CD73×PD-L1 bispecific antibody to human CD73 and PD-L1, the binding experiment at the cellular level was performed using CHO-K1 cell strains overexpressing human CD73 or PD-L1 (CHO-K1-hCD73 or CHO-K1-hPD-L1). Briefly, the CHO-K1-hCD73 and CHO-K1-hPD-L1 cells were digested and resuspended in an F-12K complete medium, and the cell density was adjusted to 1×10⁶ cells/mL. The cells were seeded in a 96-well V-bottom plate (Corning, #3894) at 100 μL/well, followed by the addition at 100 μL/well and centrifugation at 500 g at 4° C. for 5 min, and then the supernatant was discarded. Antibodies were 3-fold diluted to a maximum final concentration of 50 nM, and a total of 8 concentrations were set. 100 μL of the diluted antibodies was added to the cells, and the cells were incubated away from light at 4° C for 1 h. Thereafter, the cells in each well were rinsed twice with 100 μL of pre-cooled PBS, and centrifuged at 500 g at 4° C. for 5 min, and then the supernatant was discarded. Then 100 μL of a fluorescent secondary antibody (goat anti-human IgG (H+L) secondary antibody, Alexa Fluor® 488 conjugate, Invitrogen, #A11013, diluted at the ratio of 1:1000) was added to each well. The plate was incubated away from light at 4° C. for 30 min. The cells in each well were then rinsed twice with 200 μL of pre-cooled PBS and centrifuged at 500 g at 4° C. for 5 min, and then the supernatant was discarded. Finally, the cells in each well were resuspended in 200 μL of pre-cooled PBS, and the fluorescence signal values were read using a BD FACS CANTOII.

[2] = target: T2, human PD-L1 on CHO-K1 cells overexpressing human PD-L1 (human, UniProt Q9NZQ7 19-290); assay: flow cytometry on CHO-K1 cells overexpressing human PD-L1 (CHO-K1/hPD-L1)
T2 construct: whole, on cells; also called CHO-K1/hPD-L1; CHO-K1-hPD-L1
Method: (§2) In the example, in order to study the in vitro binding activity of the PD-L1 antigen-binding protein to human/cynomolgus monkey PD-L1, cell-level binding experiments were performed using CHO-K1 cell strains overexpressing human PD-L1 (CHO-K1/hPD-L1, GenScript, M00543) or CHO-K1 cell strains overexpressing cynomolgus monkey PD-L1 (CHO-K1/cynoPD-L1, GenScript, M00573). Briefly, the PD-L1 cells were digested and resuspended in an F-12K complete medium, and the cell density was adjusted to 1×10⁶ cells/mL. The cells were seeded in a 96-well V-bottom plate (Corning, 3894) at 100 μL/well, followed by the addition of the test antigen-binding proteins serially diluted 5-fold with concentrations that were twice the final concentrations at 100 μL/well. The mixtures were well mixed. The highest final concentration of the antigen-binding proteins was 100 nM. A total of 8 concentrations were set. An isotype antibody hIgG1 iso was used as a control. The cells were incubated away from light at 4° C. for 1 h. Thereafter, the cells in each well were rinsed twice with 100 μL of pre-cooled PBS, and centrifuged at 500 g at 4° C. for 5 min, and then the supernatant was discarded. Then 100 μL of a fluorescent secondary antibody (goat anti-human IgG (H+L) secondary antibody, Alexa Fluor 488 conjugate, Invitrogen, A11013, diluted at the ratio of 1:1000) was added to each well. The plate was incubated away from light at 4° C. for 30 min. The cells in each well were then rinsed twice with 200 μL of pre-cooled PBS and centrifuged at 500 g at 4° C. for 5 min, and then the supernatant was discarded. Finally, a pre-cooled PBS was added at 200 μL/well to resuspend the cells. Fluorescence signal values were read using a BD FACS CANTOII. Fluorescence signal values were read using a flow cytometer BD FACS CANTOII or FACS ACEA, and the data were processed and analyzed using FlowJo v10 (FlowJo, LLC) software. The data were processed and analyzed by plotting using GraphPad Prism 8 software, and binding curves, EC50 values and other parameters were acquired through four-parameter nonlinear fitting.

[3] = target: T3, cynomolgus monkey PD-L1 on CHO-K1 cells overexpressing cynomolgus monkey PD-L1 (cynomolgus monkey, UniProt G7PSE7 19-290); assay: flow cytometry on CHO-K1 cells overexpressing cynomolgus monkey PD-L1 (CHO-K1/cynoPD-L1)
T3 construct: also called CHO-K1/cynoPD-L1; GenScript M00573
Method: as §2

[4] = target: T2, human PD-L1 on CHO-K1 cells …; assay: flow cytometry on CHO-K1 cells overexpressing human PD-L1 (CHO-K1/hPD-L1); remark: listed apart in the source
Method: as §2

[5] = target: T2, human PD-L1 on CHO-K1 cells …; assay: flow cytometry on CHO-K1 cells overexpressing human PD-L1 (CHO-K1/hPD-L1) [continued) F]
Method: as §2

[6] = target: T3, cynomolgus monkey PD-L1 on CHO-K1 cells …; assay: flow cytometry on CHO-K1/cynoPD-L1 cells
Method: as §2

[7] = target: T4, human PD-L1 protein with histidine tag (ACROBiosystems #PD-1-H5258) (human, UniProt Q9NZQ7 19-238); assay: BLI (Octet Red96e); His-tagged human PD-L1 captured on HIS1K sensor, antibody at 60 nM; 1:1 fit
T4 construct: Bought protein; also called His PD-L1; human PD-L1 proteins; not shown: histidine tag
Method: In this example, affinity determination was performed on the affinity-matured mutants of PR002082 using an Octet Red96e instrument. […] The binding kinetics between the antigen and the antibody was analyzed by the biolayer interferometry (BLI) technique using an Octet molecular interaction analyzer (ForteBio, model: Octet Red96e).
When the affinity of the antigen for the antibody was determined, the rotation speed of the sensor was set at 1000 rpm/min. The 2 HIS1K sensors placed in a column were first equilibrated for 10 min in test buffer, then His PD-L1 was captured with the HIS1K sensor at a capture height of 0.9-1.1 nm, then the HIS1K sensor was equilibrated for 2 min in the test buffer, then the HIS1K sensor was bound to the antigen-binding protein (60 nM and 0 nM) for 3 min, and finally the mixture was dissociated for 15 min. The HIS1K sensor was immersed in a 10 mM glycine solution (pH 1.5) for regeneration to elute the proteins bound to the sensor.
When data analysis was performed using Octet Data Analysis software (Fortebio, version 11.0), the reference signals were subtracted by a single reference mode (reference well), the data were fitted by a “1:1 Local/full fitting” method, and the kinetic parameters of the binding of the antigen to the antibody were calculated to obtain Kₒₙ (1/Ms) values, Kdis (1/s) values and KD (M) values.

[8] = target: T2, human PD-L1 on CHO-K1 cells …; assay: flow cytometry on CHO-K1 cells overexpressing human PD-L1 (CHO-K1/hPD-L1) [continued) E]
Method: as §2

[9] = target: T2, human PD-L1 on CHO-K1 cells …; assay: flow cytometry on CHO-K1 cells overexpressing human PD-L1 (CHO-K1-hPD-L1) [continued) E]
Method: as §1, with “The plate was incubated away from light at 4° C. for 30 min. The cells in each well were then rinsed twice with 200 μL of pre-cooled PBS and centrifuged at 500 g at 4° C. for 5 min, and then the supernatant was discarded.” left out

[10] = target: T2, human PD-L1 on CHO-K1 cells …; assay: flow cytometry on CHO-K1 cells overexpressing human PD-L1 (CHO-K1-hPD-L1) [continued) F]
Method: as §1, with “The plate was incubated away from light at 4° C. for 30 min. The cells in each well were then rinsed twice with 200 μL of pre-cooled PBS and centrifuged at 500 g at 4° C. for 5 min, and then the supernatant was discarded.” left out

T2 sequence (Q9NZQ7 19-290): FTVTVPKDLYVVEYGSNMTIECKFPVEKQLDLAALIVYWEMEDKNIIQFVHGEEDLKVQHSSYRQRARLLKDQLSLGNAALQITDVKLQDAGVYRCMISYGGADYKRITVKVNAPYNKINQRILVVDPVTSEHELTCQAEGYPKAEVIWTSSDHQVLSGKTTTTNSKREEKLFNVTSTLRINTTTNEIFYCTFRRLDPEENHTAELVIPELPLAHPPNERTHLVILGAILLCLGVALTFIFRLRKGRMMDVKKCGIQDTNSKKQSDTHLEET
T3 sequence (G7PSE7 entry or part of it limits assumed): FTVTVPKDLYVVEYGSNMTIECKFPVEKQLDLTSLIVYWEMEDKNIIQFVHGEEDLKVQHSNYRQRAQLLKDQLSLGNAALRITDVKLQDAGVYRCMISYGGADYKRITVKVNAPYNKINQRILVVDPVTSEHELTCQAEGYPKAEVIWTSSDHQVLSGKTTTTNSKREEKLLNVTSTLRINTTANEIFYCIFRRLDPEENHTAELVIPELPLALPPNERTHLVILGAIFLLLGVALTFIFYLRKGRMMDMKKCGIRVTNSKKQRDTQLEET
T4 sequence (Q9NZQ7 19-238 limits assumed): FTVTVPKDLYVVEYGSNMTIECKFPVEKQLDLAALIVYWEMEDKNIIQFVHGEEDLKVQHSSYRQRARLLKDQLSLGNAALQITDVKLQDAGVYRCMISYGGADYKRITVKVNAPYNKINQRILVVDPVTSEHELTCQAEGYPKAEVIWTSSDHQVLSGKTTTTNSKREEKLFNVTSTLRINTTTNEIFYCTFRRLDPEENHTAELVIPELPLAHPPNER

B1: PR003836 (antibody, human IgG1, kappa, L234A L235A, V domains shown)
VH: QVQLVESGGGVVQPGRSLRLSCAASGFTFSSYDMHWVRQAPGKGLEWVASTWYDASKKYYADSVKGRFTISRDNSKNTLYLQMNSLRAEDTAVYYCAKGGDLLTGPNAFDIWGQGTMVTVSS
VL: DIQMTQSPSTLSASVGDRVTITCRASQSISSWLAWYQQKPGKAPKLLIYKASSLESGVPSRFSGSGSGTEFTLTISSLQPDDFATYYCQQYDNYENTFGQGTKLEIKR
notes: Anti-CD73 IgG (human IgG1 constant region, human Ig kappa), PTM removed; also called anti-CD73 antibody PR003836; anti-CD73 H2L2 antibody
EC50 [1]: 1.1 nM

B2: PR001408 (antibody, human IgG1, kappa, L234A L235A, V domains shown)
VH: QVQLVESGGGVVQPGRSLRLSCAASGFTFYSYGMHWVRQTPGKGLEWVALIWYDGSNNYYADSVKGRFTISRDNSKNTLYLQMNSLRAEDTAVYYCATERSSSFYYYYGMDVWGQGTTVTVSS
VL: DIQLTQSPSFLSTSVGDRVTITCRASQGISSYLAWYQQKPGKAPKLLIYAASTLQSGVPSRFSGSGSGTEFTLTISSLQPEDFATYYCQQLNSYPYTFGQGTELEIKR
notes: Anti-CD73 IgG (human IgG1 constant region, human Ig kappa), PTM removed; also called anti-CD73 antibody PR001408; anti-CD73 H2L2 antibody
EC50 [1]: 0.342 nM

B3: PR000960 (antibody, human IgG1, V domains shown)
VH: QVQLVESGGGVVQPGMSLRLSCAASGFNFSNYGMYWVRQAPGKGQEWVAIIWYDGTKKHYADSVKGRFTISRDNSKNTLYLEMNSLRVEDTAVYYCAKNRAIFGVVPDASDIRGQGTMVTVSS
notes: Heavy-chain-only antibody (HCAb): human VH fused to human IgG1 Fc; no light chain; also called anti-PD-L1 HCAb antibody
EC50 [2]: 3 nM
Maximum MFI [2]: 3080 MFI
EC50 [3]: 0.421 nM
Maximum MFI [3]: 8440 MFI
EC50 [4]: 0.79 nM
Maximum MFI [4]: 23700 MFI

B6: PR002079 (antibody, human IgG1, V domains shown)
VH: B3 VH with N28T
notes: HCAb; also called PTM variant of PR000960 (N28T)
EC50 [3]: 0.376 nM
EC50 [4]: 0.83 nM
Maximum MFI [4]: 24600 MFI

B10: PR003739 (bispecific antibody, human IgG1, kappa, L234A L235A)
heavy: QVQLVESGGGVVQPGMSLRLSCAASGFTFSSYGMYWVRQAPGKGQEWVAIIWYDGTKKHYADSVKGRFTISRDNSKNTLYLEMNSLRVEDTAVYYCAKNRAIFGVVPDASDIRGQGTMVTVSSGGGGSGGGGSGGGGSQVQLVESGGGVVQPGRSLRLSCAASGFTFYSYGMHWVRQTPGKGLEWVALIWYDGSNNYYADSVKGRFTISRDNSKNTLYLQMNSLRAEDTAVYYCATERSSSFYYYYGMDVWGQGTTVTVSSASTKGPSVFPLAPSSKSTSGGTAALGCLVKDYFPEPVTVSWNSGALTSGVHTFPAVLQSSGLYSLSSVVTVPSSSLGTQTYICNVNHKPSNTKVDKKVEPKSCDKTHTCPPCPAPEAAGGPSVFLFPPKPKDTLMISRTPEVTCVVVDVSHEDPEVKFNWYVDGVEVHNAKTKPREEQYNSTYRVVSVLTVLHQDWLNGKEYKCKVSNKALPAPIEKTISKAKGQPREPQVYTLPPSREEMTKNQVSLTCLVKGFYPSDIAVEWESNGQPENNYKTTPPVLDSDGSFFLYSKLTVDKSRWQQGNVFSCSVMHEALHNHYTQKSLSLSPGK
light: DIQLTQSPSFLSTSVGDRVTITCRASQGISSYLAWYQQKPGKAPKLLIYAASTLQSGVPSRFSGSGSGTEFTLTISSLQPEDFATYYCQQLNSYPYTFGQGTELEIKRTVAAPSVFIFPPSDEQLKSGTASVVCLLNNFYPREAKVQWKVDNALQSGNSQESVTEQDSKDSTYSLSSTLTLSKADYEKHKVYACEVTHQGLSSPVTKSFNRGEC
notes: light chain of PR001408; also called CD73×PD-L1 bispecific antibody PR003739
EC50 [9]: 1.66 nM
EC50 [1]: 0.99 nM

B11: PR004295 (bispecific antibody, human IgG1, kappa, L234A L235A)
heavy: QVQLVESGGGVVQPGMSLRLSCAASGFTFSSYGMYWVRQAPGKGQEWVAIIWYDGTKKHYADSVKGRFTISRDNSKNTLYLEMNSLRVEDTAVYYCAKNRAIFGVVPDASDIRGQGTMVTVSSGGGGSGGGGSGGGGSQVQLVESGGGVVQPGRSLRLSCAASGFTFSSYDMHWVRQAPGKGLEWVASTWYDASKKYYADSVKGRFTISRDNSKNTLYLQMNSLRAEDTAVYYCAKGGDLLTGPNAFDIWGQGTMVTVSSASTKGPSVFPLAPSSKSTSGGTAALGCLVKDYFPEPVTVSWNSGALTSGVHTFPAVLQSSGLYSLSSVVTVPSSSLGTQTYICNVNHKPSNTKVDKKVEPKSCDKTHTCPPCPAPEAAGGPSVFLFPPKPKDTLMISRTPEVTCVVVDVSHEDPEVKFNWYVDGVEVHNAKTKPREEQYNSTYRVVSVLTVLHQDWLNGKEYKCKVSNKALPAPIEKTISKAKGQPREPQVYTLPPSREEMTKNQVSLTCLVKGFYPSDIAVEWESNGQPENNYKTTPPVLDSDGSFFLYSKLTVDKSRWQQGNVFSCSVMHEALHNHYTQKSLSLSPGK
light: DIQMTQSPSTLSASVGDRVTITCRASQSISSWLAWYQQKPGKAPKLLIYKASSLESGVPSRFSGSGSGTEFTLTISSLQPDDFATYYCQQYDNYENTFGQGTKLEIKRTVAAPSVFIFPPSDEQLKSGTASVVCLLNNFYPREAKVQWKVDNALQSGNSQESVTEQDSKDSTYSLSSTLTLSKADYEKHKVYACEVTHQGLSSPVTKSFNRGEC
notes: light chain of PR003836; also called CD73×PD-L1 bispecific antibody PR004295
EC50 [10]: 2.17 nM
EC50 [1]: 2.09 nM

Other lines, results leading:

EC50 [5]: 0.964 nM
Maximum MFI [5]: 405000 MFI
binding result [6]: binds
Kd [7]: 1.09 nM
koff [7]: 0.000162 s⁻¹
kon [7]: 149000 M⁻¹ s⁻¹
B4: PR006245 (antibody, human IgG1, V domains shown)
VH: B3 VH with N28D, N31S, I50S, W52R, D54T, K57E
notes: The HC entry is used

binding result [6]: binds
EC50 [8]: 1.14 nM
Maximum MFI [8]: 388000 MFI
Kd [7]: 1.85 nM
koff [7]: 0.000468 s⁻¹
kon [7]: 253000 M⁻¹ s⁻¹
B5: PR005867 (antibody, human IgG1, V domains shown)
VH: B3 VH with N28T, N31S, V106I, A109D
notes: The HC entry is used

binding result [6]: binds
EC50 [8]: 1.06 nM
Maximum MFI [8]: 393000 MFI
Kd [7]: 1.92 nM
koff [7]: 0.000386 s⁻¹
kon [7]: 201000 M⁻¹ s⁻¹
B7: PR005868 (antibody, human IgG1, V domains shown)
VH: B3 VH with N28T, N31S, I102L, V106I
notes: The HC entry is used

binding result [6]: binds
EC50 [8]: 1.13 nM
Maximum MFI [8]: 393000 MFI
Kd [7]: 1.09 nM
koff [7]: 0.000262 s⁻¹
kon [7]: 241000 M⁻¹ s⁻¹
B8: PR005869 (antibody, human IgG1, V domains shown)
VH: B3 VH with N28T, N31S, I102L, V106I, A109D
notes: The HC entry is used

EC50 [5]: 1.01 nM
Maximum MFI [5]: 410000 MFI
binding result [6]: binds
Kd [7]: 1.18 nM
koff [7]: 0.000219 s⁻¹
kon [7]: 185000 M⁻¹ s⁻¹
B9: PR006247 (antibody, human IgG1, V domains shown)
VH: B3 VH with N28D, N31S, I50S, W52R, D54T, K57E, I102L, V106I
notes: The HC entry is used
